PMC7835342

Experiments:
[1] = molecular target: T1, HxlR-WT (Bacillus subtilis 168, UniProt P42406 1-120); assay: X-ray crystallography (2.9 A); 1 mM FA-treated protein; Cys11-CH2-Lys13 methylene bridge; 50 mM MgCl2 in crystallization; EMSA: protein preincubated +/- FA (1 mM in Methods, 0.6 mM in legends) in 20 mM HEPES pH 7.5, 300 mM NaCl, 1-2 h, 37 C; then 50 nM dsDNA in 20 mM HEPES pH 7.0
[2] = molecular target: HxlR-K13A (Bacillus subtilis 168, UniProt P42406 1-120, K13A); assay: EMSA; no FA; higher basal binding than WT; EMSA: protein preincubated +/- FA (1 mM in Methods, 0.6 mM in legends) in 20 mM HEPES pH 7.5, 300 mM NaCl, 1-2 h, 37 C; then 50 nM dsDNA in 20 mM HEPES pH 7.0
[3] = molecular target: T1, HxlR-WT; assay: EMSA; FA-treated (0.6 mM FA in text/legend; 1 mM in Methods); DNA binding enhanced; EMSA: protein preincubated +/- FA (1 mM in Methods, 0.6 mM in legends) in 20 mM HEPES pH 7.5, 300 mM NaCl, 1-2 h, 37 C; then 50 nM dsDNA in 20 mM HEPES pH 7.0

B1: 20 bp palindromic crystallization DNA (dsDNA)
DNA 1: CAGTATCCTCGAGGATACTG
DNA 2: CAGTATCCTCGAGGATACTG
binding result [1]: binds

B2: BRH (hxlAB promoter EMSA probe) (dsDNA)
DNA 1: CCTCACAGTATCCTCCAAGTAACTTGTTGACTTCAAAGTGCCTACTTCTC
DNA 2: GAGAAGTAGGCACTTTGAAGTCAACAAGTTACTTGGAGGATACTGTGAGG
binding result [2]: binds
binding result [3]: binds
